Results: IntAct's records for PubMed 16424905

B1: AN1-type zinc finger protein 5 (Homo sapiens), O76080 (parent)
chain: MAQETNQTPGPMLCSTGCGFYGNPRTNGMCSVCYKEHLQRQQNSGRMSPMGTASGSNSPTSDSASVQRADTSLNNCEGAAGSTSEKSRNVPVAALPVTQQMTEMSISREDKITTPKTEVSEPVVTQPSPSVSQPSTSQSEEKAPELPKPKKNRCFMCRKKVGLTGFDCRCGNLFCGLHRYSDKHNCPYDYKAEAAAKIRKENPVVVAEKIQRI

Variants of: B1
Settings: with ubc_human UBC
MAQETNQTPGPMLCSTGCGFYGNPRTNGMASVCYKEHLQRQQNSGRMSPMGTASGSNSPTSDSASVQRADTSLNNCEGAAGSTSEKSRNVPVAALPVTQQMTEMSISREDKITTPKTEVSEPVVTQPSPSVSQPSTSQSEEKAPELPKPKKNRCFMCRKKVGLTGFDCRCGNLFCGLHRYSDKHNCPYDYKAEAAAKIRKENPVVVAEKIQRI [C30A] was tested, and the “effect of a mutation on the interaction” value was “disrupting interaction”. For MAQETNQTPGPMLCSTGCGFYGNPRTNGMCSVAYKEHLQRQQNSGRMSPMGTASGSNSPTSDSASVQRADTSLNNCEGAAGSTSEKSRNVPVAALPVTQQMTEMSISREDKITTPKTEVSEPVVTQPSPSVSQPSTSQSEEKAPELPKPKKNRCFMCRKKVGLTGFDCRCGNLFCGLHRYSDKHNCPYDYKAEAAAKIRKENPVVVAEKIQRI [C33A], the “effect of a mutation on the interaction” value was “disrupting interaction”.

Variants of: B1
Settings: with psmd6_human PSMD6, Q15008
Chain of psmd6_human PSMD6, Q15008 (Q15008 whole entry): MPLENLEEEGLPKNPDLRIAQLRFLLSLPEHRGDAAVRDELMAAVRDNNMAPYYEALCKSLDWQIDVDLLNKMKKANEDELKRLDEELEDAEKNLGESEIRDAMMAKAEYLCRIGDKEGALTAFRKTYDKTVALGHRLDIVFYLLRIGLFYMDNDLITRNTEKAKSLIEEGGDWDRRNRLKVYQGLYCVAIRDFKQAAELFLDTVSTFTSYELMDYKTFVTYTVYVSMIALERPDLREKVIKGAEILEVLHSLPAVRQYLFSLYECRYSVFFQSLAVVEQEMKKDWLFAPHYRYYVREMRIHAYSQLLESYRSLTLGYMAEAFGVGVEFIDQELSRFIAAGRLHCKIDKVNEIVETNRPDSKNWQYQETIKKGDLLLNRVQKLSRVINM
MAQETNQTPGPMLCSTGCGFYGNPRTNGMASVCYKEHLQRQQNSGRMSPMGTASGSNSPTSDSASVQRADTSLNNCEGAAGSTSEKSRNVPVAALPVTQQMTEMSISREDKITTPKTEVSEPVVTQPSPSVSQPSTSQSEEKAPELPKPKKNRCFMCRKKVGLTGFDCRCGNLFCGLHRYSDKHNCPYDYKAEAAAKIRKENPVVVAEKIQRI [C30A] was tested, and the “effect of a mutation on the interaction” value was “disrupting interaction”. For MAQETNQTPGPMLCSTGCGFYGNPRTNGMCSVAYKEHLQRQQNSGRMSPMGTASGSNSPTSDSASVQRADTSLNNCEGAAGSTSEKSRNVPVAALPVTQQMTEMSISREDKITTPKTEVSEPVVTQPSPSVSQPSTSQSEEKAPELPKPKKNRCFMCRKKVGLTGFDCRCGNLFCGLHRYSDKHNCPYDYKAEAAAKIRKENPVVVAEKIQRI [C33A], the “effect of a mutation on the interaction” value was “disrupting interaction”. For MAQETNQTPGPMLCSTGCGFYGNPRTNGMCSVCYKEHLQRQQNSGRMSPMGTASGSNSPTSDSASVQRADTSLNNCEGAAGSTSEKSRNVPVAALPVTQQMTEMSISREDKITTPKTEVSEPVVTQPSPSVSQPSTSQSEEKAPELPKPKKNRCFMCRKKVGLTGFDCRCGNLFAGLHRYSDKHNCPYDYKAEAAAKIRKENPVVVAEKIQRI [C175A], the “effect of a mutation on the interaction” value was “disrupting interaction”. For MAQETNQTPGPMLCSTGCGFYGNPRTNGMCSVCYKEHLQRQQNSGRMSPMGTASGSNSPTSDSASVQRADTSLNNCEGAAGSTSEKSRNVPVAALPVTQQMTEMSISREDKITTPKTEVSEPVVTQPSPSVSQPSTSQSEEKAPELPKPKKNRCFMCRKKVGLTGFDCRAGNLFCGLHRYSDKHNCPYDYKAEAAAKIRKENPVVVAEKIQRI [C170A], the “effect of a mutation on the interaction” value was “disrupting interaction”.
